Reference: patent publication US20190177418A1

Columns and labels:
[1] = target: mouse TrkB, endogenous on mouse cortical neurons and mouse embryonic stem cell line (mouse) (UniProt P15209); assay: cell-based or functional assay
[2] = target: human TrkB (tropomyosin receptor kinase B) expressed on CHO reporter cells (human) (UniProt Q16620); assay: cell-based or functional assay
UniProt Q16620, sequence (Q16620 32-822): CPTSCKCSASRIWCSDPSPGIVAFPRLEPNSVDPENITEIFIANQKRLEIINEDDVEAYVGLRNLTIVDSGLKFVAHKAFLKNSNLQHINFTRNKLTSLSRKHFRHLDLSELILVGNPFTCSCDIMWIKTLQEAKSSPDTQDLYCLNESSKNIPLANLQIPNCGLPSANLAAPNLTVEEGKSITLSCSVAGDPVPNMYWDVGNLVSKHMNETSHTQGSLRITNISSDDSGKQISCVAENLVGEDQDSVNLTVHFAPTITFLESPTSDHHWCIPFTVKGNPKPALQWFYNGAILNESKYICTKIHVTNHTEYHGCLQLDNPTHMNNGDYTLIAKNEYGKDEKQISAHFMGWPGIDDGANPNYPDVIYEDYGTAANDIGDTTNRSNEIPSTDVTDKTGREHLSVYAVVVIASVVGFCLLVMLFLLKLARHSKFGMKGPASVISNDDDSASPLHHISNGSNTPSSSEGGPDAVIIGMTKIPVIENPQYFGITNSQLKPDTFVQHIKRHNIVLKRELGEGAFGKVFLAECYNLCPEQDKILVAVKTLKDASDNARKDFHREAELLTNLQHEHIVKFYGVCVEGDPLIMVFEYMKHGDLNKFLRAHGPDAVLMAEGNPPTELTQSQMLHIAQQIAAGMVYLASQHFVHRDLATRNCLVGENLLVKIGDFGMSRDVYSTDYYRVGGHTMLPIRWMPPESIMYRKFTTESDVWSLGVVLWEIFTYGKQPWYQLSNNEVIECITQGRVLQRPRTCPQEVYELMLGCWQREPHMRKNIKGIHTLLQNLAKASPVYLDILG

UniProt P15209, sequence (P15209 32-821): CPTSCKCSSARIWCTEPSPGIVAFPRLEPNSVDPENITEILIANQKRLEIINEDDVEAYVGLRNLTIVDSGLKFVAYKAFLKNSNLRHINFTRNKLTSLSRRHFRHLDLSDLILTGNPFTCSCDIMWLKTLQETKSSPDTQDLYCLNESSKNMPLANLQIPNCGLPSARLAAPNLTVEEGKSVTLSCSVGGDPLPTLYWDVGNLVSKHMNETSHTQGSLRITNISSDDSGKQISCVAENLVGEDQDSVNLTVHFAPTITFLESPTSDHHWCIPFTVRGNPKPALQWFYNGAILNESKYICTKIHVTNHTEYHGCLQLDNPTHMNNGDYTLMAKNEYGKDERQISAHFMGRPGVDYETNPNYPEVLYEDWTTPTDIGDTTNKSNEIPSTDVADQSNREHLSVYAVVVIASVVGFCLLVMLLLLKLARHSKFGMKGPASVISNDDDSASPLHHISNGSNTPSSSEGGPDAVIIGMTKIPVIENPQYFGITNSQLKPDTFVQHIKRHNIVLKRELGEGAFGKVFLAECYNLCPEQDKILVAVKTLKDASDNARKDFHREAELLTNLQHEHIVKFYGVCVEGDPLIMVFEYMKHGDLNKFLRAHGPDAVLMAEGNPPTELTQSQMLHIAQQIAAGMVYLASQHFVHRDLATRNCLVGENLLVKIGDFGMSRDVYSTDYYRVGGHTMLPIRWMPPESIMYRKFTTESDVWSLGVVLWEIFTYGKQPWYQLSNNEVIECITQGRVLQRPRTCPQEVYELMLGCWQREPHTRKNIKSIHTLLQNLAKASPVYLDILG

TrkB phosphorylation in mouse embryonic stem cell line [1]: 2 nM
signaling in human TrkB reporter cell [2]: 2 nM
Substance: brain derived neurotrophic factor (BDNF) (from UniProt P23560 129-247) (ligand)
